{"source": "patent US20230272029A1", "about": "“CO-AGONISTS AT GLP-1 AND GIP RECEPTORS SUITABLE FOR ORAL DELIVERY” (Novo Nordisk A/S, priority 2020, published 2023)", "key": {"human GLP-1 receptor": {"target": "human GLP-1 receptor (human, UniProt P43220 24-463)", "assay": "cell-based or functional assay"}, "human GIP receptor": {"target": "T1, human GIP receptor (human, UniProt P48546 22-466)", "T1 sequence (looked up)": "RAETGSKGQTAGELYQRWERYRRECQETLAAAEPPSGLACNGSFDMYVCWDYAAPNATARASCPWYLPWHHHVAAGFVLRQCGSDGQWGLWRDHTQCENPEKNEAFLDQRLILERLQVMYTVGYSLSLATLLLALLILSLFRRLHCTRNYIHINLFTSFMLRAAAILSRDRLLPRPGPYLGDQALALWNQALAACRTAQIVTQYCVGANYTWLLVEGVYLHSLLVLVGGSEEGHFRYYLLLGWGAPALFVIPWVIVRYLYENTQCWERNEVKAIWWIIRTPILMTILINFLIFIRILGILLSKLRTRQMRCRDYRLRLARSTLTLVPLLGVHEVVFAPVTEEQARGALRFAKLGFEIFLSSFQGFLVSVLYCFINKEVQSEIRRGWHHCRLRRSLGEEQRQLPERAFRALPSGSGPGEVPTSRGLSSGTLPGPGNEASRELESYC", "assay": "cell-based or functional assay"}}, "note": "Starred links: 1 amine or outer side, 2 acyl side, 3 side chain; linkers in the order of their positions; H or OH if unused. Non-standard residues stand in square brackets, D forms with d. Groups on a side chain read outwards from the residue. No end group written: not given here. *: point of attachment. C18 diacid = O=C(O)CCCCCCCCCCCCCCCCC(=O)*; γGlu = O=C(O)[C@H](CCC(=O)[*:2])N[*:1]; εLys = N[C@@H](CCCCN[*:1])C(=O)[*:2]; Aib = CC(C)(N)C(=O)O", "data": [{"binder": "Y[Aib]EGTFTSDYSILLEK([εLys-εLys-γGlu-C18 diacid])QAAEEFINWLLAGGPSSGAPPPS-OH (N-terminus assumed; SMILES CC[C@H](C)[C@H](NC(=O)[C@H](Cc1ccccc1)NC(=O)[C@H](CCC(=O)O)NC(=O)[C@H](CCC(=O)O)NC(=O)[C@H](C)NC(=O)[C@H](C)NC(=O)[C@H](CCC(N)=O)NC(=O)[C@H](CCCCNC(=O)[C@@H](N)CCCCNC(=O)[C@@H](N)CCCCNC(=O)CC[C@H](NC(=O)CCCCCCCCCCCCCCCCC(=O)O)C(=O)O)NC(=O)[C@H](CCC(=O)O)NC(=O)[C@H](CC(C)C)NC(=O)[C@H](CC(C)C)NC(=O)[C@@H](NC(=O)[C@H](CO)NC(=O)[C@H](Cc1ccc(O)cc1)NC(=O)[C@H](CC(=O)O)NC(=O)[C@H](CO)NC(=O)[C@@H](NC(=O)[C@H](Cc1ccccc1)NC(=O)[C@@H](NC(=O)CNC(=O)[C@H](CCC(=O)O)NC(=O)C(C)(C)NC(=O)[C@@H](N)Cc1ccc(O)cc1)[C@@H](C)O)[C@@H](C)O)[C@@H](C)CC)C(=O)N[C@@H](CC(N)=O)C(=O)N[C@@H](Cc1c[nH]c2ccccc12)C(=O)N[C@@H](CC(C)C)C(=O)N[C@@H](CC(C)C)C(=O)N[C@@H](C)C(=O)NCC(=O)NCC(=O)N1CCC[C@H]1C(=O)N[C@@H](CO)C(=O)N[C@@H](CO)C(=O)NCC(=O)N[C@@H](C)C(=O)N1CCC[C@H]1C(=O)N1CCC[C@H]1C(=O)N1CCC[C@H]1C(=O)N[C@@H](CO)C(=O)O)", "note": "[Compound No. 25]", "values": [{"measurement": "hGLP-1R, CRE Luc 0% HSA EC50 (pM)", "setting": "human GLP-1 receptor", "value": 15.5, "unit": "pM"}, {"measurement": "hGLP-1R, CRE Luc 1% HSA EC50 (pM)", "setting": "human GLP-1 receptor", "value": 740, "unit": "pM"}, {"measurement": "hGIPR, CRE Luc 0% HSA EC50 (pM)", "setting": "human GIP receptor", "value": 7.2, "unit": "pM"}, {"measurement": "hGIPR, CRE Luc 1% HSA EC50 (pM)", "setting": "human GIP receptor", "value": 263, "unit": "pM"}]}, {"binder": "Y[Aib]EGTFTSDYSILLEK([εLys-εLys-γGlu-C18 diacid])QAAHEFINWLLAGGPSSGAPPPS-OH (N-terminus assumed; SMILES CC[C@H](C)[C@H](NC(=O)[C@H](Cc1ccccc1)NC(=O)[C@H](CCC(=O)O)NC(=O)[C@H](Cc1c[nH]cn1)NC(=O)[C@H](C)NC(=O)[C@H](C)NC(=O)[C@H](CCC(N)=O)NC(=O)[C@H](CCCCNC(=O)[C@@H](N)CCCCNC(=O)[C@@H](N)CCCCNC(=O)CC[C@H](NC(=O)CCCCCCCCCCCCCCCCC(=O)O)C(=O)O)NC(=O)[C@H](CCC(=O)O)NC(=O)[C@H](CC(C)C)NC(=O)[C@H](CC(C)C)NC(=O)[C@@H](NC(=O)[C@H](CO)NC(=O)[C@H](Cc1ccc(O)cc1)NC(=O)[C@H](CC(=O)O)NC(=O)[C@H](CO)NC(=O)[C@@H](NC(=O)[C@H](Cc1ccccc1)NC(=O)[C@@H](NC(=O)CNC(=O)[C@H](CCC(=O)O)NC(=O)C(C)(C)NC(=O)[C@@H](N)Cc1ccc(O)cc1)[C@@H](C)O)[C@@H](C)O)[C@@H](C)CC)C(=O)N[C@@H](CC(N)=O)C(=O)N[C@@H](Cc1c[nH]c2ccccc12)C(=O)N[C@@H](CC(C)C)C(=O)N[C@@H](CC(C)C)C(=O)N[C@@H](C)C(=O)NCC(=O)NCC(=O)N1CCC[C@H]1C(=O)N[C@@H](CO)C(=O)N[C@@H](CO)C(=O)NCC(=O)N[C@@H](C)C(=O)N1CCC[C@H]1C(=O)N1CCC[C@H]1C(=O)N1CCC[C@H]1C(=O)N[C@@H](CO)C(=O)O)", "note": "[Compound No. 26]", "values": [{"measurement": "hGLP-1R, CRE Luc 0% HSA EC50 (pM)", "setting": "human GLP-1 receptor", "value": 7.4, "unit": "pM"}, {"measurement": "hGLP-1R, CRE Luc 1% HSA EC50 (pM)", "setting": "human GLP-1 receptor", "value": 595, "unit": "pM"}, {"measurement": "hGIPR, CRE Luc 0% HSA EC50 (pM)", "setting": "human GIP receptor", "value": 4.9, "unit": "pM"}, {"measurement": "hGIPR, CRE Luc 1% HSA EC50 (pM)", "setting": "human GIP receptor", "value": 153, "unit": "pM"}]}, {"binder": "Y[Aib]EGTFTSDYSILLEEQAARK([εLys-εLys-γGlu-C18 diacid])FINWLLAGGPSSGAPPPS-OH (N-terminus assumed; SMILES CC[C@H](C)[C@H](NC(=O)[C@H](Cc1ccccc1)NC(=O)[C@H](CCCCNC(=O)[C@@H](N)CCCCNC(=O)[C@@H](N)CCCCNC(=O)CC[C@H](NC(=O)CCCCCCCCCCCCCCCCC(=O)O)C(=O)O)NC(=O)[C@H](CCCNC(=N)N)NC(=O)[C@H](C)NC(=O)[C@H](C)NC(=O)[C@H](CCC(N)=O)NC(=O)[C@H](CCC(=O)O)NC(=O)[C@H](CCC(=O)O)NC(=O)[C@H](CC(C)C)NC(=O)[C@H](CC(C)C)NC(=O)[C@@H](NC(=O)[C@H](CO)NC(=O)[C@H](Cc1ccc(O)cc1)NC(=O)[C@H](CC(=O)O)NC(=O)[C@H](CO)NC(=O)[C@@H](NC(=O)[C@H](Cc1ccccc1)NC(=O)[C@@H](NC(=O)CNC(=O)[C@H](CCC(=O)O)NC(=O)C(C)(C)NC(=O)[C@@H](N)Cc1ccc(O)cc1)[C@@H](C)O)[C@@H](C)O)[C@@H](C)CC)C(=O)N[C@@H](CC(N)=O)C(=O)N[C@@H](Cc1c[nH]c2ccccc12)C(=O)N[C@@H](CC(C)C)C(=O)N[C@@H](CC(C)C)C(=O)N[C@@H](C)C(=O)NCC(=O)NCC(=O)N1CCC[C@H]1C(=O)N[C@@H](CO)C(=O)N[C@@H](CO)C(=O)NCC(=O)N[C@@H](C)C(=O)N1CCC[C@H]1C(=O)N1CCC[C@H]1C(=O)N1CCC[C@H]1C(=O)N[C@@H](CO)C(=O)O)", "note": "[Compound No. 39]", "values": [{"measurement": "hGLP-1R, CRE Luc 0% HSA EC50 (pM)", "setting": "human GLP-1 receptor", "value": 8.2, "unit": "pM"}, {"measurement": "hGLP-1R, CRE Luc 1% HSA EC50 (pM)", "setting": "human GLP-1 receptor", "value": 135, "unit": "pM"}, {"measurement": "hGIPR, CRE Luc 0% HSA EC50 (pM)", "setting": "human GIP receptor", "value": 28.4, "unit": "pM"}, {"measurement": "hGIPR, CRE Luc 1% HSA EC50 (pM)", "setting": "human GIP receptor", "value": 365, "unit": "pM"}]}, {"binder": "Y[Aib]EGTFTSDYSILLEK([εLys-εLys-γGlu-C18 diacid])QAAREFIEWLLRGGPESGAPPPS-OH (N-terminus assumed; SMILES CC[C@H](C)[C@H](NC(=O)[C@H](Cc1ccccc1)NC(=O)[C@H](CCC(=O)O)NC(=O)[C@H](CCCNC(=N)N)NC(=O)[C@H](C)NC(=O)[C@H](C)NC(=O)[C@H](CCC(N)=O)NC(=O)[C@H](CCCCNC(=O)[C@@H](N)CCCCNC(=O)[C@@H](N)CCCCNC(=O)CC[C@H](NC(=O)CCCCCCCCCCCCCCCCC(=O)O)C(=O)O)NC(=O)[C@H](CCC(=O)O)NC(=O)[C@H](CC(C)C)NC(=O)[C@H](CC(C)C)NC(=O)[C@@H](NC(=O)[C@H](CO)NC(=O)[C@H](Cc1ccc(O)cc1)NC(=O)[C@H](CC(=O)O)NC(=O)[C@H](CO)NC(=O)[C@@H](NC(=O)[C@H](Cc1ccccc1)NC(=O)[C@@H](NC(=O)CNC(=O)[C@H](CCC(=O)O)NC(=O)C(C)(C)NC(=O)[C@@H](N)Cc1ccc(O)cc1)[C@@H](C)O)[C@@H](C)O)[C@@H](C)CC)C(=O)N[C@@H](CCC(=O)O)C(=O)N[C@@H](Cc1c[nH]c2ccccc12)C(=O)N[C@@H](CC(C)C)C(=O)N[C@@H](CC(C)C)C(=O)N[C@@H](CCCNC(=N)N)C(=O)NCC(=O)NCC(=O)N1CCC[C@H]1C(=O)N[C@@H](CCC(=O)O)C(=O)N[C@@H](CO)C(=O)NCC(=O)N[C@@H](C)C(=O)N1CCC[C@H]1C(=O)N1CCC[C@H]1C(=O)N1CCC[C@H]1C(=O)N[C@@H](CO)C(=O)O)", "note": "[Compound No. 28]", "values": [{"measurement": "hGLP-1R, CRE Luc 0% HSA EC50 (pM)", "setting": "human GLP-1 receptor", "value": 6.2, "unit": "pM"}, {"measurement": "hGLP-1R, CRE Luc 1% HSA EC50 (pM)", "setting": "human GLP-1 receptor", "value": 139, "unit": "pM"}, {"measurement": "hGIPR, CRE Luc 0% HSA EC50 (pM)", "setting": "human GIP receptor", "value": 6.6, "unit": "pM"}, {"measurement": "hGIPR, CRE Luc 1% HSA EC50 (pM)", "setting": "human GIP receptor", "value": 86.5, "unit": "pM"}]}, {"binder": "Y[Aib]EGTFTSDYSILLEK([εLys-εLys-γGlu-C18 diacid])QAAREFIEWLLRGGPSSGAPPPS-OH (N-terminus assumed; SMILES CC[C@H](C)[C@H](NC(=O)[C@H](Cc1ccccc1)NC(=O)[C@H](CCC(=O)O)NC(=O)[C@H](CCCNC(=N)N)NC(=O)[C@H](C)NC(=O)[C@H](C)NC(=O)[C@H](CCC(N)=O)NC(=O)[C@H](CCCCNC(=O)[C@@H](N)CCCCNC(=O)[C@@H](N)CCCCNC(=O)CC[C@H](NC(=O)CCCCCCCCCCCCCCCCC(=O)O)C(=O)O)NC(=O)[C@H](CCC(=O)O)NC(=O)[C@H](CC(C)C)NC(=O)[C@H](CC(C)C)NC(=O)[C@@H](NC(=O)[C@H](CO)NC(=O)[C@H](Cc1ccc(O)cc1)NC(=O)[C@H](CC(=O)O)NC(=O)[C@H](CO)NC(=O)[C@@H](NC(=O)[C@H](Cc1ccccc1)NC(=O)[C@@H](NC(=O)CNC(=O)[C@H](CCC(=O)O)NC(=O)C(C)(C)NC(=O)[C@@H](N)Cc1ccc(O)cc1)[C@@H](C)O)[C@@H](C)O)[C@@H](C)CC)C(=O)N[C@@H](CCC(=O)O)C(=O)N[C@@H](Cc1c[nH]c2ccccc12)C(=O)N[C@@H](CC(C)C)C(=O)N[C@@H](CC(C)C)C(=O)N[C@@H](CCCNC(=N)N)C(=O)NCC(=O)NCC(=O)N1CCC[C@H]1C(=O)N[C@@H](CO)C(=O)N[C@@H](CO)C(=O)NCC(=O)N[C@@H](C)C(=O)N1CCC[C@H]1C(=O)N1CCC[C@H]1C(=O)N1CCC[C@H]1C(=O)N[C@@H](CO)C(=O)O)", "note": "[Compound No. 27]", "values": [{"measurement": "hGLP-1R, CRE Luc 0% HSA EC50 (pM)", "setting": "human GLP-1 receptor", "value": 4.6, "unit": "pM"}, {"measurement": "hGLP-1R, CRE Luc 1% HSA EC50 (pM)", "setting": "human GLP-1 receptor", "value": 127, "unit": "pM"}, {"measurement": "hGIPR, CRE Luc 0% HSA EC50 (pM)", "setting": "human GIP receptor", "value": 6.3, "unit": "pM"}, {"measurement": "hGIPR, CRE Luc 1% HSA EC50 (pM)", "setting": "human GIP receptor", "value": 132, "unit": "pM"}]}]}
